In patent publication US20150344570A1 (published 2015):

Tests used:
FcγRIIa R [1] = molecular target: T1, FcγRIIa R (human, UniProt P12318 34-217); assay: SPR (Biacore T100); He/Con_2aR divided by He/Con_2b (FcγRIIa R over FcγRIIb)
T1 construct: extracellular domain; also called FcgRIIa R; FcγRIIa type R; not shown: His tag at the C terminus
T1 sequence (looked up): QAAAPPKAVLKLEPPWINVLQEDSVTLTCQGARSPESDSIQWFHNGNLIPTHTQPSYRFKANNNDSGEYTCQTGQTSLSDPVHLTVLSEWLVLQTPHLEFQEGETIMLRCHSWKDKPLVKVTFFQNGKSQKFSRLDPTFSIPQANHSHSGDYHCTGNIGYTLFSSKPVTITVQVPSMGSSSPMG
Description: (§1) The heterodimerized antibodies He Abs in which one of the H chains was introduced with an alteration were assayed for their binding activities to each activating FcγR and inhibitory FcγR according to the method described in Example 4. […] The activating FcγRs in FIGS. 26, 27, 28, and 29 are FcγRIa, FcγRIIa (R), FcγRIIa (H), and FcγRIIIa, respectively.
(§2) Analysis of interaction between objective antibody and the FcγR was carried out using Biacore T100 (GE Healthcare). HBS-EP+ (GE Healthcare) was used as the running buffer, and the measurement temperature was set to 25° C. Chips produced by immobilizing the antigen peptide by the amine coupling method to a Series S Sencor Chip CM5 (GE Healthcare), or alternatively, chips produced by allowing preliminarily biotinylated antigen peptides to interact with and immobilize onto a Series S Sensor Chip SA (certified) (GE Healthcare) were used. Antibodies of interest were captured onto an antigen peptide-immobilized chip, and allowed to interact to each FcγR diluted with running buffer. To regenerate and repeatedly use the chip, the antibodies captured on the chip were washed off by reacting 10 mM glycine-HCl, pH 1.5.

FcγRIIa R [2] = molecular target: T1, FcγRIIa R; assay: SPR (Biacore T100), antibody captured on antigen peptide chip, FcγR as analyte; binding relative to GpH7-A5/GpH7-B3/GpL16-k0 = 100
Description: as §1, §2

FcγRIIb = molecular target: T2, FcγRIIb (human, UniProt P31994 43-217); assay: as above
T2 construct: extracellular domain; also called FcgRIIb; 2b; not shown: His tag at the C terminus
T2 sequence (looked up): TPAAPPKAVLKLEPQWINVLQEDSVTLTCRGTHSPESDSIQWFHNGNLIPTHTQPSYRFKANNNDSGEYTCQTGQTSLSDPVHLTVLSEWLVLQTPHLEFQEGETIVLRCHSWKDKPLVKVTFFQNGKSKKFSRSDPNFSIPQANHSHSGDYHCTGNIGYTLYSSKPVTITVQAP
Description: as §1, §2

Binder	He_2aR/2b (IIaR/IIb) (FcγRIIa R [1]) [ratio]	He/Con_2aR (IIaR binding) (FcγRIIa R [2])	He/Con_2b (IIb binding) (FcγRIIb)
GpH7-A5/GpH7-B3 variant D265_08L/GpL16-k0 (antibody, human IgG1, kappa, Heterodimerized anti-glypican-3 IgG1; mutation in one H chain only; also called He Ab) heavy 1: not shown heavy 2: not shown light: DIVMTQSPLSLPVTPGEPASISCQASESLVHSNRNTYLHWYLQKPGQSPQLLIYKVSNRFSGVPDRFSGSGSGTDFTLKISRVEAEDVGVYYCSQNTHVPPTFGQGTKVEIERTVAAPSVFIFPPSDEQLKSGTASVVCLLNNFYPREAKVQWKVDNALQSGNSQESVTEQDSKDSTYSLSSTLTLSKADYEKHKVYACEVTHQGLSSPVTKSFNRGEC	1.46	6.6 % of control	4.6 % of control
GpH7-A5/GpH7-B3 variant P238_02A/GpL16-k0 (antibody, human IgG1, kappa, Heterodimerized anti-glypican-3 IgG1; mutation in one H chain only; also called He Ab) heavy 1: not shown heavy 2: not shown light: DIVMTQSPLSLPVTPGEPASISCQASESLVHSNRNTYLHWYLQKPGQSPQLLIYKVSNRFSGVPDRFSGSGSGTDFTLKISRVEAEDVGVYYCSQNTHVPPTFGQGTKVEIERTVAAPSVFIFPPSDEQLKSGTASVVCLLNNFYPREAKVQWKVDNALQSGNSQESVTEQDSKDSTYSLSSTLTLSKADYEKHKVYACEVTHQGLSSPVTKSFNRGEC	1.31	75.1 % of control	57.4 % of control
GpH7-A5/GpH7-B3 variant P238_11K/GpL16-k0 (antibody, human IgG1, kappa, Heterodimerized anti-glypican-3 IgG1; mutation in one H chain only; also called He Ab) heavy 1: not shown heavy 2: not shown light: DIVMTQSPLSLPVTPGEPASISCQASESLVHSNRNTYLHWYLQKPGQSPQLLIYKVSNRFSGVPDRFSGSGSGTDFTLKISRVEAEDVGVYYCSQNTHVPPTFGQGTKVEIERTVAAPSVFIFPPSDEQLKSGTASVVCLLNNFYPREAKVQWKVDNALQSGNSQESVTEQDSKDSTYSLSSTLTLSKADYEKHKVYACEVTHQGLSSPVTKSFNRGEC	2.03	36.9 % of control	18.1 % of control
GpH7-A5/GpH7-B3 variant P238_18N/GpL16-k0 (antibody, human IgG1, kappa, Heterodimerized anti-glypican-3 IgG1; mutation in one H chain only; also called He Ab) heavy 1: not shown heavy 2: not shown light: DIVMTQSPLSLPVTPGEPASISCQASESLVHSNRNTYLHWYLQKPGQSPQLLIYKVSNRFSGVPDRFSGSGSGTDFTLKISRVEAEDVGVYYCSQNTHVPPTFGQGTKVEIERTVAAPSVFIFPPSDEQLKSGTASVVCLLNNFYPREAKVQWKVDNALQSGNSQESVTEQDSKDSTYSLSSTLTLSKADYEKHKVYACEVTHQGLSSPVTKSFNRGEC	1.26	91.9 % of control	73.2 % of control
GpH7-A5/GpH7-B3 variant G237_16H/GpL16-k0 (antibody, human IgG1, kappa, Heterodimerized anti-glypican-3 IgG1; mutation in one H chain only; also called He Ab) heavy 1: not shown heavy 2: not shown light: DIVMTQSPLSLPVTPGEPASISCQASESLVHSNRNTYLHWYLQKPGQSPQLLIYKVSNRFSGVPDRFSGSGSGTDFTLKISRVEAEDVGVYYCSQNTHVPPTFGQGTKVEIERTVAAPSVFIFPPSDEQLKSGTASVVCLLNNFYPREAKVQWKVDNALQSGNSQESVTEQDSKDSTYSLSSTLTLSKADYEKHKVYACEVTHQGLSSPVTKSFNRGEC	1.35	74.5 % of control	55.2 % of control
GpH7-A5/GpH7-B3 variant P238_13S/GpL16-k0 (antibody, human IgG1, kappa, Heterodimerized anti-glypican-3 IgG1; mutation in one H chain only; also called He Ab) heavy 1: not shown heavy 2: not shown light: DIVMTQSPLSLPVTPGEPASISCQASESLVHSNRNTYLHWYLQKPGQSPQLLIYKVSNRFSGVPDRFSGSGSGTDFTLKISRVEAEDVGVYYCSQNTHVPPTFGQGTKVEIERTVAAPSVFIFPPSDEQLKSGTASVVCLLNNFYPREAKVQWKVDNALQSGNSQESVTEQDSKDSTYSLSSTLTLSKADYEKHKVYACEVTHQGLSSPVTKSFNRGEC	1.26	88.9 % of control	70.4 % of control
GpH7-A5/GpH7-B3 variant G237_14T/GpL16-k0 (antibody, human IgG1, kappa, Heterodimerized anti-glypican-3 IgG1; mutation in one H chain only; also called He Ab) heavy 1: not shown heavy 2: not shown light: DIVMTQSPLSLPVTPGEPASISCQASESLVHSNRNTYLHWYLQKPGQSPQLLIYKVSNRFSGVPDRFSGSGSGTDFTLKISRVEAEDVGVYYCSQNTHVPPTFGQGTKVEIERTVAAPSVFIFPPSDEQLKSGTASVVCLLNNFYPREAKVQWKVDNALQSGNSQESVTEQDSKDSTYSLSSTLTLSKADYEKHKVYACEVTHQGLSSPVTKSFNRGEC	1.43	78.6 % of control	54.8 % of control
GpH7-A5/GpH7-B3 variant G236_15Y/GpL16-k0 (antibody, human IgG1, kappa, Heterodimerized anti-glypican-3 IgG1; mutation in one H chain only; also called He Ab) heavy 1: not shown heavy 2: not shown light: DIVMTQSPLSLPVTPGEPASISCQASESLVHSNRNTYLHWYLQKPGQSPQLLIYKVSNRFSGVPDRFSGSGSGTDFTLKISRVEAEDVGVYYCSQNTHVPPTFGQGTKVEIERTVAAPSVFIFPPSDEQLKSGTASVVCLLNNFYPREAKVQWKVDNALQSGNSQESVTEQDSKDSTYSLSSTLTLSKADYEKHKVYACEVTHQGLSSPVTKSFNRGEC	1.48	58.6 % of control	39.5 % of control
GpH7-A5/GpH7-B3 variant G236_20W/GpL16-k0 (antibody, human IgG1, kappa, Heterodimerized anti-glypican-3 IgG1; mutation in one H chain only; also called He Ab) heavy 1: not shown heavy 2: not shown light: DIVMTQSPLSLPVTPGEPASISCQASESLVHSNRNTYLHWYLQKPGQSPQLLIYKVSNRFSGVPDRFSGSGSGTDFTLKISRVEAEDVGVYYCSQNTHVPPTFGQGTKVEIERTVAAPSVFIFPPSDEQLKSGTASVVCLLNNFYPREAKVQWKVDNALQSGNSQESVTEQDSKDSTYSLSSTLTLSKADYEKHKVYACEVTHQGLSSPVTKSFNRGEC	1.34	77.9 % of control	58.2 % of control
GpH7-A5/GpH7-B3 variant G237_05P/GpL16-k0 (antibody, human IgG1, kappa, Heterodimerized anti-glypican-3 IgG1; mutation in one H chain only; also called He Ab) heavy 1: not shown heavy 2: not shown light: DIVMTQSPLSLPVTPGEPASISCQASESLVHSNRNTYLHWYLQKPGQSPQLLIYKVSNRFSGVPDRFSGSGSGTDFTLKISRVEAEDVGVYYCSQNTHVPPTFGQGTKVEIERTVAAPSVFIFPPSDEQLKSGTASVVCLLNNFYPREAKVQWKVDNALQSGNSQESVTEQDSKDSTYSLSSTLTLSKADYEKHKVYACEVTHQGLSSPVTKSFNRGEC	1.4	34.5 % of control	24.6 % of control
GpH7-A5/GpH7-B3 variant P238_12R/GpL16-k0 (antibody, human IgG1, kappa, Heterodimerized anti-glypican-3 IgG1; mutation in one H chain only; also called He Ab) heavy 1: not shown heavy 2: not shown light: DIVMTQSPLSLPVTPGEPASISCQASESLVHSNRNTYLHWYLQKPGQSPQLLIYKVSNRFSGVPDRFSGSGSGTDFTLKISRVEAEDVGVYYCSQNTHVPPTFGQGTKVEIERTVAAPSVFIFPPSDEQLKSGTASVVCLLNNFYPREAKVQWKVDNALQSGNSQESVTEQDSKDSTYSLSSTLTLSKADYEKHKVYACEVTHQGLSSPVTKSFNRGEC	1.57	80.5 % of control	51.4 % of control
GpH7-A5/GpH7-B3 variant P238_14T/GpL16-k0 (antibody, human IgG1, kappa, Heterodimerized anti-glypican-3 IgG1; mutation in one H chain only; also called He Ab) heavy 1: not shown heavy 2: not shown light: DIVMTQSPLSLPVTPGEPASISCQASESLVHSNRNTYLHWYLQKPGQSPQLLIYKVSNRFSGVPDRFSGSGSGTDFTLKISRVEAEDVGVYYCSQNTHVPPTFGQGTKVEIERTVAAPSVFIFPPSDEQLKSGTASVVCLLNNFYPREAKVQWKVDNALQSGNSQESVTEQDSKDSTYSLSSTLTLSKADYEKHKVYACEVTHQGLSSPVTKSFNRGEC	1.44	73.1 % of control	50.7 % of control
GpH7-A5/GpH7-B3 variant G236_16H/GpL16-k0 (antibody, human IgG1, kappa, Heterodimerized anti-glypican-3 IgG1; mutation in one H chain only; also called He Ab) heavy 1: not shown heavy 2: not shown light: DIVMTQSPLSLPVTPGEPASISCQASESLVHSNRNTYLHWYLQKPGQSPQLLIYKVSNRFSGVPDRFSGSGSGTDFTLKISRVEAEDVGVYYCSQNTHVPPTFGQGTKVEIERTVAAPSVFIFPPSDEQLKSGTASVVCLLNNFYPREAKVQWKVDNALQSGNSQESVTEQDSKDSTYSLSSTLTLSKADYEKHKVYACEVTHQGLSSPVTKSFNRGEC	2.24	62.7 % of control	27.9 % of control
GpH7-A5/GpH7-B3 variant S239_04F/GpL16-k0 (antibody, human IgG1, kappa, Heterodimerized anti-glypican-3 IgG1; mutation in one H chain only; also called He Ab) heavy 1: not shown heavy 2: not shown light: DIVMTQSPLSLPVTPGEPASISCQASESLVHSNRNTYLHWYLQKPGQSPQLLIYKVSNRFSGVPDRFSGSGSGTDFTLKISRVEAEDVGVYYCSQNTHVPPTFGQGTKVEIERTVAAPSVFIFPPSDEQLKSGTASVVCLLNNFYPREAKVQWKVDNALQSGNSQESVTEQDSKDSTYSLSSTLTLSKADYEKHKVYACEVTHQGLSSPVTKSFNRGEC	1.24	54.8 % of control	44.1 % of control
GpH7-A5/GpH7-B3 variant G237_03V/GpL16-k0 (antibody, human IgG1, kappa, Heterodimerized anti-glypican-3 IgG1; mutation in one H chain only; also called He Ab) heavy 1: not shown heavy 2: not shown light: DIVMTQSPLSLPVTPGEPASISCQASESLVHSNRNTYLHWYLQKPGQSPQLLIYKVSNRFSGVPDRFSGSGSGTDFTLKISRVEAEDVGVYYCSQNTHVPPTFGQGTKVEIERTVAAPSVFIFPPSDEQLKSGTASVVCLLNNFYPREAKVQWKVDNALQSGNSQESVTEQDSKDSTYSLSSTLTLSKADYEKHKVYACEVTHQGLSSPVTKSFNRGEC	1.52	93 % of control	61.4 % of control
GpH7-A5/GpH7-B3 variant G236_19Q/GpL16-k0 (antibody, human IgG1, kappa, Heterodimerized anti-glypican-3 IgG1; mutation in one H chain only; also called He Ab) heavy 1: not shown heavy 2: not shown light: DIVMTQSPLSLPVTPGEPASISCQASESLVHSNRNTYLHWYLQKPGQSPQLLIYKVSNRFSGVPDRFSGSGSGTDFTLKISRVEAEDVGVYYCSQNTHVPPTFGQGTKVEIERTVAAPSVFIFPPSDEQLKSGTASVVCLLNNFYPREAKVQWKVDNALQSGNSQESVTEQDSKDSTYSLSSTLTLSKADYEKHKVYACEVTHQGLSSPVTKSFNRGEC	1.59	74.2 % of control	46.6 % of control
